Tests used:
Assay in all cases: cell-based or functional assay
[1] = target: T1, PKCζ(h) (human) (UniProt Q05513)
T1 sequence (looked up): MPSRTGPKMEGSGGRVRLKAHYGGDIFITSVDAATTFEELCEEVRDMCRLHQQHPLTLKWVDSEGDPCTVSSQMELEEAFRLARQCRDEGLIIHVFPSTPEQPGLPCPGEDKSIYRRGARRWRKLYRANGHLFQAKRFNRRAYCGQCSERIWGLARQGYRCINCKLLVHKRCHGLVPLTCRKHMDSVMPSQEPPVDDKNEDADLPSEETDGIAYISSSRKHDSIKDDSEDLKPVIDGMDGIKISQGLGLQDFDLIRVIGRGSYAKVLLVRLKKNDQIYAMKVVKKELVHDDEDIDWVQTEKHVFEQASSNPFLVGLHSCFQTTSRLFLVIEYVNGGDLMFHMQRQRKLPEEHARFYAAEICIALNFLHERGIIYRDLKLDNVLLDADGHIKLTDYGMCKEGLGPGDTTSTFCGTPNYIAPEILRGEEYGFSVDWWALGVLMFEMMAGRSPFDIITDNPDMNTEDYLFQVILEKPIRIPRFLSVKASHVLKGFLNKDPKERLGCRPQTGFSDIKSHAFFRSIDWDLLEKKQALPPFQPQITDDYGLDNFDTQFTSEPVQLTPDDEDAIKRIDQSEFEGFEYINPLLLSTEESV

[2] = target: T2, CHK1(h) (human) (UniProt O14757)
T2 sequence (looked up): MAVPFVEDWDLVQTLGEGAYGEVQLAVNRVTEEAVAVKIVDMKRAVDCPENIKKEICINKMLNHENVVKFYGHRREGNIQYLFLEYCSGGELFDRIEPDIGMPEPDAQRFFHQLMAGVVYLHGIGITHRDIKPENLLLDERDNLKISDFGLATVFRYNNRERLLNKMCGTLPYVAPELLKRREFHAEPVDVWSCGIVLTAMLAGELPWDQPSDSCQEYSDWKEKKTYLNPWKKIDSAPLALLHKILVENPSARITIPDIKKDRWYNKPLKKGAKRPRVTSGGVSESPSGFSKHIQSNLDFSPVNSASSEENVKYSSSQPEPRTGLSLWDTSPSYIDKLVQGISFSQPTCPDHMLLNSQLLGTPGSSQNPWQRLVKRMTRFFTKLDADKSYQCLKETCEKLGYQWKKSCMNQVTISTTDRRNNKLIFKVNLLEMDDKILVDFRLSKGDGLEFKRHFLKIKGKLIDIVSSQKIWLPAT

[3] = target: SGK(h) (human) (UniProt O00141)
[4] = target: CHK2(h) (human) (UniProt O96017)
Sequence of CHK2(h) (human) (O96017 5-543 limits assumed): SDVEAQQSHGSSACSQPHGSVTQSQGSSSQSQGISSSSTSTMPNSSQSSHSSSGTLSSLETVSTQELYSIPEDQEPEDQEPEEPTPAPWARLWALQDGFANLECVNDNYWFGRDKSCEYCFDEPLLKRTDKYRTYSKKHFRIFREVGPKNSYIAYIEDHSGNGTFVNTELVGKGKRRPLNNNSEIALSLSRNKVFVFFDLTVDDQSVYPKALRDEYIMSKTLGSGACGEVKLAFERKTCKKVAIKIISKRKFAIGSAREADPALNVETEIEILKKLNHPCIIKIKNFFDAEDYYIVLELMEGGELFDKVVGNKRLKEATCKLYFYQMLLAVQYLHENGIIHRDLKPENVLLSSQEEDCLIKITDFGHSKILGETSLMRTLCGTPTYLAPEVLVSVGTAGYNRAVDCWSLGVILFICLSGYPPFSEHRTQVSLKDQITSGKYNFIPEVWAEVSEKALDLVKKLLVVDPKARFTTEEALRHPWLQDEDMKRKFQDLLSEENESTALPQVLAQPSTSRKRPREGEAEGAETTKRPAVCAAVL

[5] = target: mTOR/FKBP12(h) (human) (UniProt P42345)
[6] = target: PDGFRβ(h) (human) (UniProt P09619)
Sequence of PDGFRβ(h) (human) (P09619 557-1106 limits assumed): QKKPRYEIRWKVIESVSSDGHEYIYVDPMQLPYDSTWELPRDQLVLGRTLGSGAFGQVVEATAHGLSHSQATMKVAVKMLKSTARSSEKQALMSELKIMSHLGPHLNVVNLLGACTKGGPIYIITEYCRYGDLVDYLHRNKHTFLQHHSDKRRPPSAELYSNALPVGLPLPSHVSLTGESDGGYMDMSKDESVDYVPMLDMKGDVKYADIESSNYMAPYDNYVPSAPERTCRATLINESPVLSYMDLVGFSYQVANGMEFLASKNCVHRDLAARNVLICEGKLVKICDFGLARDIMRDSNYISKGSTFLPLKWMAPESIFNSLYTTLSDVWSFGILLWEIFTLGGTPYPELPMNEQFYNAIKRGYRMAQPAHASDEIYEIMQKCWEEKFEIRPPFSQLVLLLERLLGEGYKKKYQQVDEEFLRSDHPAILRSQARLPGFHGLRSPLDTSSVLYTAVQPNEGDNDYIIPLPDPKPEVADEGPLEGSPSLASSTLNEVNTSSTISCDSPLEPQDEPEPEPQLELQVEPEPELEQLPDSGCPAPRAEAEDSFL

[7] = target: Abl(Q252H)(h) (human) (UniProt P00519)
Sequence of Abl(Q252H)(h) (human) (P00519 27-1130 Q252H limits assumed): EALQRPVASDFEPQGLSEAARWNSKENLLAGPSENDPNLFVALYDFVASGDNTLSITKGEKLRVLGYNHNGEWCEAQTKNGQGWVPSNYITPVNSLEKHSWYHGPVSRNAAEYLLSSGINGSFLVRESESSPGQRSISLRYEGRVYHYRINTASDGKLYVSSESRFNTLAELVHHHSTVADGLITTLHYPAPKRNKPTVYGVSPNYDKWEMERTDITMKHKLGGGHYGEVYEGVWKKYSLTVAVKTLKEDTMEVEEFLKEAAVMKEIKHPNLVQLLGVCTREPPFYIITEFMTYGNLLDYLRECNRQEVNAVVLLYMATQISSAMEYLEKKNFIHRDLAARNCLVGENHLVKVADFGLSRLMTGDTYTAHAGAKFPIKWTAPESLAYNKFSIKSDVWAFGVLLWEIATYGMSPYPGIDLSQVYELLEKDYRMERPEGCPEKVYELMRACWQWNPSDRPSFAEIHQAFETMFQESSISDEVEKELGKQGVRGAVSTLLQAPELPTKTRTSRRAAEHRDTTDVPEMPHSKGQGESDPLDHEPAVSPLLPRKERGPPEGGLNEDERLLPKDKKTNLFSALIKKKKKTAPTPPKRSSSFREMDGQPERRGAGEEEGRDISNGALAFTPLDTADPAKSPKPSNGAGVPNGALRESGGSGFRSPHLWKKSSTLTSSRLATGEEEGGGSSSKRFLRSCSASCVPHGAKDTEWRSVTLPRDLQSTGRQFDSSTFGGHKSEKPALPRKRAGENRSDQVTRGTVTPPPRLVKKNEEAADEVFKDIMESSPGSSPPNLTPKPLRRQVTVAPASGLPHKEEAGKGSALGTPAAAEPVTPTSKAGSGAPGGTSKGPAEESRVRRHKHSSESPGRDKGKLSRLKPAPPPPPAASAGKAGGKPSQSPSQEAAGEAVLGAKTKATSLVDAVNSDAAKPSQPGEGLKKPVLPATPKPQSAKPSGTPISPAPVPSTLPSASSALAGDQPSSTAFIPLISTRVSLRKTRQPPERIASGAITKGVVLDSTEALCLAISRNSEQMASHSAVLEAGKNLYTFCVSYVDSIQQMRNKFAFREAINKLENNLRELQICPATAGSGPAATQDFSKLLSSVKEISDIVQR

[8] = target: PDGFRα(D842V)(h) (human) (UniProt P16234)
Sequence of PDGFRα(D842V)(h) (human) (P16234 550-1089 D842V limits assumed): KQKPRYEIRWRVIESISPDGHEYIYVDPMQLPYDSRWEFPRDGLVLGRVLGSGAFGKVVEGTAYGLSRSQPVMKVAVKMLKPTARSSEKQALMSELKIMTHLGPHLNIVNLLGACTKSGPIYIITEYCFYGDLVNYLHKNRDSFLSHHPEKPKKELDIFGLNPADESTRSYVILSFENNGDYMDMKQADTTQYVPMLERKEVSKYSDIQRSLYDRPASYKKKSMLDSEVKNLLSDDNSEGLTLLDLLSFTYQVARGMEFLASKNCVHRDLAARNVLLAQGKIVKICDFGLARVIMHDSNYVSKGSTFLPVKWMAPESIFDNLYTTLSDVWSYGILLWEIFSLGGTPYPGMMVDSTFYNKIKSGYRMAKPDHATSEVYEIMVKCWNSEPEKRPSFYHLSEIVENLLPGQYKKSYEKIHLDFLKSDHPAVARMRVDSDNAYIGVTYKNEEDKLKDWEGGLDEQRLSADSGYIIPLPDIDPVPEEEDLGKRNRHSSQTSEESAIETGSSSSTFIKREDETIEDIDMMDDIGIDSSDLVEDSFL

[9] = target: PKBγ(h) (human) (UniProt Q9Y243)
Sequence of PKBγ(h) (human) (Q9Y243 whole entry): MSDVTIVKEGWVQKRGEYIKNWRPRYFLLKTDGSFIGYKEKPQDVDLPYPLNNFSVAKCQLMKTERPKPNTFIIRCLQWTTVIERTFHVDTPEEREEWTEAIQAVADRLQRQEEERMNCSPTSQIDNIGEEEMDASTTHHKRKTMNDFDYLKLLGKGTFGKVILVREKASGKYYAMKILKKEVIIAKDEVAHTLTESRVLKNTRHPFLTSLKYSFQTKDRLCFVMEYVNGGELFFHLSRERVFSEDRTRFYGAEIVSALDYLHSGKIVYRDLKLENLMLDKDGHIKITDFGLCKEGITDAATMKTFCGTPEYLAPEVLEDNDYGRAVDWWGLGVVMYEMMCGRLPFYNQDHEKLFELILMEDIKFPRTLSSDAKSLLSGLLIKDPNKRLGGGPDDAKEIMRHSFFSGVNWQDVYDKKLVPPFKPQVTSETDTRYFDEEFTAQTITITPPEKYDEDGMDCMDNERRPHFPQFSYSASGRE

[10] = target: CK2(h) (human)
[11] = target: Fyn(h) (human) (UniProt P06241)
Sequence of Fyn(h) (human) (P06241 whole entry): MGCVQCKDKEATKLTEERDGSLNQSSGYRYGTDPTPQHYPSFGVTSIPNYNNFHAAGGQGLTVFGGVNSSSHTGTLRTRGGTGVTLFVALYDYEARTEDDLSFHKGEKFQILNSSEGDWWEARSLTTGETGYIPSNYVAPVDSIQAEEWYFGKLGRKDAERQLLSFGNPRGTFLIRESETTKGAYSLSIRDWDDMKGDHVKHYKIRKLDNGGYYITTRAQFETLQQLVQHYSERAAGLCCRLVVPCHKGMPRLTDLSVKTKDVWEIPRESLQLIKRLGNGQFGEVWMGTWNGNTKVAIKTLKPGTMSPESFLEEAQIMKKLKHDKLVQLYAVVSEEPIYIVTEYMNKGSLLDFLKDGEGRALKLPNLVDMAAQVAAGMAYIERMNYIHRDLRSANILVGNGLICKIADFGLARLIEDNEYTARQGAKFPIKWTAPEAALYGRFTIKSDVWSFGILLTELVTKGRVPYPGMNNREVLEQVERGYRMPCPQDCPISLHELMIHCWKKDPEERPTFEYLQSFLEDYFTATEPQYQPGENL

[12] = target: T3, Ret(V804M)(h) (human) (UniProt P07949)
T3 sequence (looked up): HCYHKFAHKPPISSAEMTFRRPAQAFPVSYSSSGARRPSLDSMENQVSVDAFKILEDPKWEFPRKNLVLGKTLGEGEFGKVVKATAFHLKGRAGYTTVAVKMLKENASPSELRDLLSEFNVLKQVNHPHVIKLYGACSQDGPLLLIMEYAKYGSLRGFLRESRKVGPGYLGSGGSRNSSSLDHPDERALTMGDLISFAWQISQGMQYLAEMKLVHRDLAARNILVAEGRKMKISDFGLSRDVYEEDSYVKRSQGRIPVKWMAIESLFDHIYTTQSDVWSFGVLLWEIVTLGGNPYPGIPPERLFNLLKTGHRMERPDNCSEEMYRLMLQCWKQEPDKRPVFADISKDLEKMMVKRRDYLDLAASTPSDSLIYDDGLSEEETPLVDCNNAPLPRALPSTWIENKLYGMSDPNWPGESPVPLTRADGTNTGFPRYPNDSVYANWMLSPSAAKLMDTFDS

[13] = target: NEK7(h) (human) (UniProt Q8TDX7)
Sequence of NEK7(h) (human) (Q8TDX7 whole entry): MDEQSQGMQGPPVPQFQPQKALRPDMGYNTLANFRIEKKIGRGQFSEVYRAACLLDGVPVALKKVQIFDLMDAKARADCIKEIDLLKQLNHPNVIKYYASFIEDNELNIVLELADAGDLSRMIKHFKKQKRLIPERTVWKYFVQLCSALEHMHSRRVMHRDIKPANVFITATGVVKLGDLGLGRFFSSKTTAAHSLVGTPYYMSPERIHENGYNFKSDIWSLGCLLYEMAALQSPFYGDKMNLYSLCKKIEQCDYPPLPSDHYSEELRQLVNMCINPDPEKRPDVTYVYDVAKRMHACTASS

[14] = target: T4, TSSK1(h) (human) (UniProt Q9BXA7)
T4 sequence (looked up): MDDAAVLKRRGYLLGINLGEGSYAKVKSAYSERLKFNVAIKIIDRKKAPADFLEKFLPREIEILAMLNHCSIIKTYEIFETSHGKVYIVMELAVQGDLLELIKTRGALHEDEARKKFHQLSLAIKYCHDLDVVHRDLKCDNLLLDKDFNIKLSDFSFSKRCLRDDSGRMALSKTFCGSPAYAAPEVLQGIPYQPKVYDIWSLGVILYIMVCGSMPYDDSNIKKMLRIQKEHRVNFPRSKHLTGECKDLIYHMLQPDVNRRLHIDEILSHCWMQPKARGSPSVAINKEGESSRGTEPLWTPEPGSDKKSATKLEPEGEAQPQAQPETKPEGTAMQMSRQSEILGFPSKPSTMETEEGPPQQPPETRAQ

[15] = target: PKCγ(h) (human) (UniProt P05129)

- % activity, 100 µM [1]: 7%
- % activity, 100 µM [2]: 65%
- % activity, 100 µM [3]: 2%
- % activity, 100 µM [4]: 13%
- % activity, 100 µM [5]: 140%
- % activity, 100 µM [6]: 40%
- % activity, 100 µM [7]: 40%
- % activity, 100 µM [8]: 170%
- % activity, 100 µM [9]: 20%
- % activity, 100 µM [10]: 93%
- % activity, 100 µM [11]: 83%
- % activity, 100 µM [12]: 36%
- % activity, 100 µM [13]: 89%
- % activity, 100 µM [14]: 46%
- % activity, 100 µM [15]: 6%
Substance: MMI-0500 (peptide)
